{
  "source": "paper PMC5087277",
  "about": "(ACS chemical biology, 2016)",
  "key": {"[1]": {"tested_on": "Nc1ncnc2c1ncn2[C@@H]1O[C@H](COP(=O)(O)OP(=O)(O)OP(=O)(O)O)[C@@H](O)[C@H]1O", "assay": "coupled ATP hydrolysis assay", "assay_type": "biochemical, Escherichia coli", "conditions": "pH 7.5"}, "[2]": {"biological_target": "ClpXP (sc6ClpXΔN-bio with ClpP; ATP site on ClpX) (Escherichia coli, UniProt P0A6H1, C169S/K408E)", "assay": "bio-layer interferometry, ClpP association to immobilised ClpX", "assay_type": "binding"}, "[3]": {"biological_target": "^sc6ClpX^ΔN-bio single-chain ClpX^ΔN pseudohexamer (E. coli)", "assay": "BLI"}, "[4]": {"tested_on": "^sc6ClpX^ΔN-bio single-chain ClpX^ΔN pseudohexamer", "assay": "BLI"}, "[5]": {"conditions": "no ClpP, Hill n = 2.4, 10 mM MgCl2, 30 °C"}, "[6]": {"conditions": "excess ClpP (1 μM), Hill n = 2.2, 10 mM MgCl2, 30 °C"}},
  "data": [
    {"compound": "sc6ClpXΔN-bio (Escherichia coli K-12; C169S/K408E)", "values": [
      {"measurement": "K0.5", "setting": "[1]; [5]", "result": "42 ± 3", "unit": "µM"},
      {"measurement": "kcat", "setting": "[1]; [5]", "result": 73, "unit": "min^−1 enz^−1"}
    ]},
    {"compound": "Nc1ncnc2c1ncn2[C@@H]1O[C@H](COP(=O)(O)OP(=O)(O)OP(=O)(O)O)[C@@H](O)[C@H]1O", "note": "[ATP]", "values": [
      {"measurement": "EC50", "setting": "[2]", "result": "100 ± 2", "unit": "µM"}
    ]},
    {"compound": "E. coli ClpP (C91V, C113A) (enzyme)", "values": [
      {"measurement": "Kd", "setting": "[3]", "result": "< 0.0001", "unit": "µM"},
      {"measurement": "dissociation rate constant in the absence of nucleotide or presence of ADP", "setting": "[3]", "result": "< 0.07", "unit": "s⁻¹"},
      {"measurement": "fold more kinetically stable in 7:1 ADP:ATP against ADP alone", "setting": "[3]", "result": 100, "unit": "fold"},
      {"measurement": "half-life of ADEP-2B-induced dissociation", "setting": "[3]", "result": 1, "unit": "s"},
      {"measurement": "half-life of dissociation in ADP (complex formed with ATP)", "setting": "[3]", "result": 5, "unit": "s"},
      {"measurement": "half-life of dissociation in ADP (complex formed with ATPγS)", "setting": "[3]", "result": 20, "unit": "s"},
      {"measurement": "half-maximal binding, total ClpP concentration", "setting": "[3]", "result": 160, "unit": "pM"},
      {"measurement": "maximum dissociation rate constant with ADEP-2B (hyperbolic fit)", "setting": "[3]", "result": 2, "unit": "s⁻¹"}
    ]},
    {"compound": "E. coli ClpP (C91V, C113A)", "values": [
      {"measurement": "kobs of association at 200 nM ClpP, maximal fitted value against ATP", "setting": "[4]", "result": "0.138 ± 0.001", "unit": "s^−1 for kobs"},
      {"measurement": "maximal rate of kobs-1 (double-exponential association, amplitude ~70%)", "setting": "[4]", "result": "the maximal rate was 22 ± 7 s^−1"},
      {"measurement": "maximal rate of kobs-2 (double-exponential association, amplitude ~30%)", "setting": "[4]", "result": "the maximal rate was 0.54 ± 0.2 s^−1"}
    ]},
    {"compound": "ClpXP (sc6ClpXΔN-bio with ClpP; ATP site on ClpX) (Escherichia coli K-12; C169S/K408E)", "values": [
      {"measurement": "K0.5", "setting": "[1]; [6]", "result": 29, "unit": "µM"},
      {"measurement": "kcat", "setting": "[1]; [6]", "result": 41, "unit": "min^−1 enz^−1"}
    ]}
  ]
}
